{
  "source": "paper PMC11969024",
  "about": "(2025)",
  "parents": {"B1": {"name": "peptide HD2 (from tick evasin EVA4) / CCL8 (biotinylated, synthetic) (parent complex)", "chain 1": "EEDDYTAYAPLTCYFT", "chain 2": "QPDSVSIPITCCFNVINRKIPIQRLESYTRITNIQCPKEAVIFKTKRGKEVCADPKERWVRDSMKHLDQIFQNLKP"}},
  "data": [
    {"variants_of": "B1", "values": [
      {"variant": "chain 1 E2M", "enrichment": "-2.24 log2 (difference from the parental peptide)"},
      {"variant": "chain 1 E2D", "enrichment": "1.04 log2 (difference from the parental peptide)"},
      {"variant": "chain 1 E2H", "enrichment": "-2.03 log2 (difference from the parental peptide)"},
      {"variant": "chain 1 E2L", "enrichment": "-1.7 log2 (difference from the parental peptide)"},
      {"variant": "chain 1 E2V", "enrichment": "-1.43 log2 (difference from the parental peptide)"},
      {"variant": "chain 1 Y8H", "enrichment": "-4.28 log2 (difference from the parental peptide)"},
      {"variant": "chain 1 Y8N", "enrichment": "-4.48 log2 (difference from the parental peptide)"},
      {"variant": "chain 1 Y8S", "enrichment": "-4.18 log2 (difference from the parental peptide)"},
      {"variant": "chain 1 Y8F", "enrichment": "1.24 log2 (difference from the parental peptide)"},
      {"variant": "chain 1 P10A", "enrichment": "-8.23 log2 (difference from the parental peptide)"},
      {"variant": "chain 1 P10Y", "enrichment": "-6.5 log2 (difference from the parental peptide)"},
      {"variant": "chain 1 P10G", "enrichment": "-9.74 log2 (difference from the parental peptide)"},
      {"variant": "chain 1 P10Q", "enrichment": "-5.91 log2 (difference from the parental peptide)"},
      {"variant": "chain 1 Y14F", "enrichment": "0.904 log2 (difference from the parental peptide)"},
      {"variant": "chain 1 Y14S", "enrichment": "-0.238 log2 (difference from the parental peptide)"},
      {"variant": "chain 1 Y14T", "enrichment": "1.09 log2 (difference from the parental peptide)"},
      {"variant": "chain 1 Y14H", "enrichment": "1.41 log2 (difference from the parental peptide)"},
      {"variant": "chain 1 Y14D", "enrichment": "-0.707 log2 (difference from the parental peptide)"},
      {"variant": "chain 1 Y14G", "enrichment": "-2.18 log2 (difference from the parental peptide)"},
      {"variant": "chain 1 Y14Q", "enrichment": "0.652 log2 (difference from the parental peptide)"},
      {"variant": "chain 1 Y5A", "enrichment": "-6.59 log2 (difference from the parental peptide)"},
      {"variant": "chain 1 E1V", "enrichment": "-0.973 log2 (difference from the parental peptide)"},
      {"variant": "chain 1 E1P", "enrichment": "-0.418 log2 (difference from the parental peptide)"},
      {"variant": "chain 1 E1L", "enrichment": "-1.2 log2 (difference from the parental peptide)"},
      {"variant": "chain 1 E1G", "enrichment": "-0.383 log2 (difference from the parental peptide)"},
      {"variant": "chain 1 E1C", "enrichment": "-8.27 log2 (difference from the parental peptide)"},
      {"variant": "chain 1 E1D", "enrichment": "1.88 log2 (difference from the parental peptide)"},
      {"variant": "chain 1 D4T", "enrichment": "-2.87 log2 (difference from the parental peptide)"},
      {"variant": "chain 1 D4F", "enrichment": "-4.31 log2 (difference from the parental peptide)"},
      {"variant": "chain 1 D4A", "enrichment": "-3.07 log2 (difference from the parental peptide)"},
      {"variant": "chain 1 D4H", "enrichment": "-4.48 log2 (difference from the parental peptide)"},
      {"variant": "chain 1 D4C", "enrichment": "-7.17 log2 (difference from the parental peptide)"},
      {"variant": "chain 1 D4L", "enrichment": "-3.87 log2 (difference from the parental peptide)"},
      {"variant": "chain 1 D4V", "enrichment": "-3.88 log2 (difference from the parental peptide)"},
      {"variant": "chain 1 C13Q", "enrichment": "-1.97 log2 (difference from the parental peptide)"},
      {"variant": "chain 1 C13M", "enrichment": "-0.513 log2 (difference from the parental peptide)"},
      {"variant": "chain 1 C13V", "enrichment": "0.0797 log2 (difference from the parental peptide)"},
      {"variant": "chain 1 C13R", "enrichment": "-3.1 log2 (difference from the parental peptide)"},
      {"variant": "chain 1 C13D", "enrichment": "-4.59 log2 (difference from the parental peptide)"},
      {"variant": "chain 1 D3Q", "enrichment": "-2.92 log2 (difference from the parental peptide)"},
      {"variant": "chain 1 D3N", "enrichment": "-1.8 log2 (difference from the parental peptide)"},
      {"variant": "chain 1 D3C", "enrichment": "-7.83 log2 (difference from the parental peptide)"},
      {"variant": "chain 1 D3Y", "enrichment": "-2.62 log2 (difference from the parental peptide)"},
      {"variant": "chain 1 D3G", "enrichment": "-2.58 log2 (difference from the parental peptide)"},
      {"variant": "chain 1 D3L", "enrichment": "-2.94 log2 (difference from the parental peptide)"},
      {"variant": "chain 1 D3P", "enrichment": "-2.64 log2 (difference from the parental peptide)"},
      {"variant": "chain 1 D3A", "enrichment": "-1.64 log2 (difference from the parental peptide)"},
      {"variant": "chain 1 D3M", "enrichment": "-3.45 log2 (difference from the parental peptide)"},
      {"variant": "chain 1 D3I", "enrichment": "-3.47 log2 (difference from the parental peptide)"},
      {"variant": "chain 1 L11M", "enrichment": "2.26 log2 (difference from the parental peptide)"},
      {"variant": "chain 1 L11G", "enrichment": "-1.12 log2 (difference from the parental peptide)"},
      {"variant": "chain 1 L11S", "enrichment": "1.65 log2 (difference from the parental peptide)"},
      {"variant": "chain 1 F15S", "enrichment": "1.91 log2 (difference from the parental peptide)"},
      {"variant": "chain 1 F15H", "enrichment": "2.19 log2 (difference from the parental peptide)"},
      {"variant": "chain 1 T6A", "enrichment": "1.59 log2 (difference from the parental peptide)"},
      {"variant": "chain 1 T6M", "enrichment": "-0.0579 log2 (difference from the parental peptide)"},
      {"variant": "chain 1 T6S", "enrichment": "2.06 log2 (difference from the parental peptide)"},
      {"variant": "chain 1 T6P", "enrichment": "-1.36 log2 (difference from the parental peptide)"},
      {"variant": "chain 1 A7P", "enrichment": "0.181 log2 (difference from the parental peptide)"},
      {"variant": "chain 1 A7V", "enrichment": "-0.376 log2 (difference from the parental peptide)"},
      {"variant": "chain 1 A7M", "enrichment": "1.51 log2 (difference from the parental peptide)"},
      {"variant": "chain 1 T16Y", "enrichment": "-0.142 log2 (difference from the parental peptide)"},
      {"variant": "chain 1 T16G", "enrichment": "1.07 log2 (difference from the parental peptide)"},
      {"variant": "chain 1 T16V", "enrichment": "0.537 log2 (difference from the parental peptide)"},
      {"variant": "chain 1 T16W", "enrichment": "-0.46 log2 (difference from the parental peptide)"},
      {"variant": "chain 1 T12G", "enrichment": "-3.67 log2 (difference from the parental peptide)"},
      {"variant": "chain 1 T12F", "enrichment": "-1.18 log2 (difference from the parental peptide)"},
      {"variant": "chain 1 T12M", "enrichment": "-0.433 log2 (difference from the parental peptide)"},
      {"variant": "chain 1 T12I", "enrichment": "-0.26 log2 (difference from the parental peptide)"},
      {"variant": "chain 1 A9H", "enrichment": "-2.52 log2 (difference from the parental peptide)"},
      {"variant": "chain 1 A9I", "enrichment": "-5.81 log2 (difference from the parental peptide)"},
      {"variant": "chain 1 A9D", "enrichment": "-7.75 log2 (difference from the parental peptide)"},
      {"variant": "chain 1 A9L", "enrichment": "-3.92 log2 (difference from the parental peptide)"},
      {"variant": "chain 1 A9F", "enrichment": "-4.42 log2 (difference from the parental peptide)"},
      {"variant": "chain 1 A9E", "enrichment": "1.36 log2 (difference from the parental peptide)"}
    ]}
  ]
}
